Measurements published in PMC8196004.

T1: PP2A-B55, Q7ZX64
T1 chain: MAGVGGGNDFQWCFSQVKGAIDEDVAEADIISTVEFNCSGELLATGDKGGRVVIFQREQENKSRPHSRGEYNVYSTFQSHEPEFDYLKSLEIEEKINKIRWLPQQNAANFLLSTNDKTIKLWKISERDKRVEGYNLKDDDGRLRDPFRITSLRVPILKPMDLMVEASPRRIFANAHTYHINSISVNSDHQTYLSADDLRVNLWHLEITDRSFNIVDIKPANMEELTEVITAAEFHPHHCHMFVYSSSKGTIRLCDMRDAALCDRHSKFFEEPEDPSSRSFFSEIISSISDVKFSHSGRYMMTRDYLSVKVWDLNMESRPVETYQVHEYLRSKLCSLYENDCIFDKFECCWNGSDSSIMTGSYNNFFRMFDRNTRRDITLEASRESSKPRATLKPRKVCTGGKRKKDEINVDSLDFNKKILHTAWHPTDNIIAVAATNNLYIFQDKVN


Target: T1, PP2A-B55, Q7ZX64
Test: His pull-down, western blot quantification
Details: read off a plot
[1] = chain shown with the change, 20 ng His-Arpp19, panel titled Phospho-Arpp19, parent: est. 0.98
[2] = chain shown with the change, Arpp19 thio-phosphorylated at S67/S71 (ATPγS and recombinant Gwl kinase), parent: est. 1.0
[3] = chain shown with the change;, parent: est. 0.83
[4] = chain shown with the change;, parent: est. 0.90

Binder | response [1] [AU] | response [2] [AU] | response [3] [AU] | response [4] [AU]
6His-Xenopus Arpp19 (isoform 1), wild type F69A (protein) MSGENQETKAQEESSALEQKEIDDKVVSPEKSEEIKLKARYPNLGPKPGGSDFLRKRLQKGVSKKQKYADSGDYNMAKAKMKNKQLPTAASDKTEVTGDHIPTPQDLPQRKPSLVASKLAG | 0.04 | 0.08 | – | –
6His-Xenopus Arpp19 (isoform 1), wild type D70A (protein) MSGENQETKAQEESSALEQKEIDDKVVSPEKSEEIKLKARYPNLGPKPGGSDFLRKRLQKGVSKKQKYFASGDYNMAKAKMKNKQLPTAASDKTEVTGDHIPTPQDLPQRKPSLVASKLAG | 0.14 | 0.04 | – | –
6His-Xenopus Arpp19 (isoform 1), wild type G72A; S71A (protein) MSGENQETKAQEESSALEQKEIDDKVVSPEKSEEIKLKARYPNLGPKPGGSDFLRKRLQKGVSKKQKYFDAADYNMAKAKMKNKQLPTAASDKTEVTGDHIPTPQDLPQRKPSLVASKLAG | – | – | 0.16 | –
6His-Xenopus Arpp19 (isoform 1), wild type G72A; S71T (protein) MSGENQETKAQEESSALEQKEIDDKVVSPEKSEEIKLKARYPNLGPKPGGSDFLRKRLQKGVSKKQKYFDTADYNMAKAKMKNKQLPTAASDKTEVTGDHIPTPQDLPQRKPSLVASKLAG | – | – | 0.08 | –
6His-Xenopus Arpp19 (isoform 1), wild type K67A (protein) MSGENQETKAQEESSALEQKEIDDKVVSPEKSEEIKLKARYPNLGPKPGGSDFLRKRLQKGVSKKQAYFDSGDYNMAKAKMKNKQLPTAASDKTEVTGDHIPTPQDLPQRKPSLVASKLAG | 0.52 | – | – | –
6His-Xenopus Arpp19 (isoform 1), wild type G72A (protein) MSGENQETKAQEESSALEQKEIDDKVVSPEKSEEIKLKARYPNLGPKPGGSDFLRKRLQKGVSKKQKYFDSADYNMAKAKMKNKQLPTAASDKTEVTGDHIPTPQDLPQRKPSLVASKLAG | 1.4 | – | 1.2 | –
6His-Xenopus Arpp19 (isoform 1), wild type D73A (protein) MSGENQETKAQEESSALEQKEIDDKVVSPEKSEEIKLKARYPNLGPKPGGSDFLRKRLQKGVSKKQKYFDSGAYNMAKAKMKNKQLPTAASDKTEVTGDHIPTPQDLPQRKPSLVASKLAG | 0.16 | 0.15 | – | –

Next, values leading:

response [1] [AU] | response [2] [AU] | response [3] [AU] | response [4] [AU] | Binder
0.16 | 0.18 | – | – | 6His-Xenopus Arpp19 (isoform 1), wild type Y68A (protein) MSGENQETKAQEESSALEQKEIDDKVVSPEKSEEIKLKARYPNLGPKPGGSDFLRKRLQKGVSKKQKAFDSGDYNMAKAKMKNKQLPTAASDKTEVTGDHIPTPQDLPQRKPSLVASKLAG
0.86 | – | – | – | 6His-Xenopus Arpp19 (isoform 1), wild type Q66A (protein) MSGENQETKAQEESSALEQKEIDDKVVSPEKSEEIKLKARYPNLGPKPGGSDFLRKRLQKGVSKKAKYFDSGDYNMAKAKMKNKQLPTAASDKTEVTGDHIPTPQDLPQRKPSLVASKLAG
– | – | – | 0.36 | 6His-Xenopus Arpp19 (isoform 1), wild type T103A; P104A; D106A; L107A; P108A; Q109A (protein) MSGENQETKAQEESSALEQKEIDDKVVSPEKSEEIKLKARYPNLGPKPGGSDFLRKRLQKGVSKKQKYFDSGDYNMAKAKMKNKQLPTAASDKTEVTGDHIPAAQAAAARKPSLVASKLAG
– | – | – | 0.57 | 6His-Xenopus Arpp19 (isoform 1), wild type T103A; P104A (protein) MSGENQETKAQEESSALEQKEIDDKVVSPEKSEEIKLKARYPNLGPKPGGSDFLRKRLQKGVSKKQKYFDSGDYNMAKAKMKNKQLPTAASDKTEVTGDHIPAAQDLPQRKPSLVASKLAG
0.09 | 0.11 | – | – | 6His-Xenopus Arpp19 (isoform 1), wild type Y74A (protein) MSGENQETKAQEESSALEQKEIDDKVVSPEKSEEIKLKARYPNLGPKPGGSDFLRKRLQKGVSKKQKYFDSGDANMAKAKMKNKQLPTAASDKTEVTGDHIPTPQDLPQRKPSLVASKLAG
0.21 | 0.13 | – | – | 6His-Xenopus Arpp19 (isoform 1), wild type S71T (protein) MSGENQETKAQEESSALEQKEIDDKVVSPEKSEEIKLKARYPNLGPKPGGSDFLRKRLQKGVSKKQKYFDTGDYNMAKAKMKNKQLPTAASDKTEVTGDHIPTPQDLPQRKPSLVASKLAG
